Experimental findings from patent publication US20250154277A1 (CONCEPT TO MEDICINE BIOTECH, published 2025) are described below.

Test [1] concerns the target T1, human 5T4-His protein (human, UniProt Q13641 32-355).
T1 construct: also called recombinant 5T4 protein (human 5T4-his tag); human 5T4 protein; not shown: His tag
T1 sequence (looked up): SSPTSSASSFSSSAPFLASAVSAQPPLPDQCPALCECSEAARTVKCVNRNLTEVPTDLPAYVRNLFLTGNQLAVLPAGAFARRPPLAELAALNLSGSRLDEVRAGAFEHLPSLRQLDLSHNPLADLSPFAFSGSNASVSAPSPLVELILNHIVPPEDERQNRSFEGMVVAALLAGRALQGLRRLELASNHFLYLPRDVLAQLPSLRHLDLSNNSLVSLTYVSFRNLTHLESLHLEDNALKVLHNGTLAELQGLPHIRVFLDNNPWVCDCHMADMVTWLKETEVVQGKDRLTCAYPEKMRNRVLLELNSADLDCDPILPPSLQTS
The test is described as follows: ELISA, coated antigen. The protocol: (§1) ELISA testing was carried out to evaluate the binding of chimeric antibodies to human and cynomolgus, respectively. The antibody portion of naptumomab (NeoTX) that targets 5T4 (abbreviated as naptumomab in the present disclosure), was generated and used as a benchmark.
(§2) Briefly, microtiter plates were coated with human and cynomolgus 5T4 proteins at […] in PBS, 100 μl/well at 4° C. overnight, then blocked with 150 μl/well of 1% BSA. Serial dilutions of chimeric antibodies were added to each well and incubated for 1 hour at RT. The plates were washed with PBS/Tween and then incubate with mouse-anti-human IgG Fc antibody conjugated with Horse Radish Peroxidase (HRP) for 30 mins at RT. After washing, the plates were developed with TMB substrate and analyzed by spectrophotometer at OD 450 nm. All the 5T4 chimeric mAbs bound to human and cynomolgus 5T4 (FIG. 1-2 and Table 3).
Background: In an ELISA, binding on a coated surface is turned into a signal by an enzyme label.

In test [2] the target is T2, cynomolgus 5T4 protein (cynomolgus monkey, UniProt Q4R8Y9 35-355, limits assumed).
T2 construct: Coated protein in ELISA; the screening step names a cyno 5T4-His protein; also called cyno 5T4; recombinant cyno 5T4-His protein
T2 sequence (looked up): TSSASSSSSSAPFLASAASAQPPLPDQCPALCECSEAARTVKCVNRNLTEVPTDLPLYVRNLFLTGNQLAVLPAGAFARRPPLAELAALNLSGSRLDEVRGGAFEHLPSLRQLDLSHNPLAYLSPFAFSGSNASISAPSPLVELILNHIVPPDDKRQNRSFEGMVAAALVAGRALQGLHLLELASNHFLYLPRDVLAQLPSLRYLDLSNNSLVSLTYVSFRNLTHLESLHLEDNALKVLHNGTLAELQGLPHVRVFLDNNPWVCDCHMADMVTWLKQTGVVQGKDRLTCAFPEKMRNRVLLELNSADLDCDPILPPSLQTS
The test is described as follows: ELISA, coated antigen. The protocol:
as §1, §2

Test [3] addresses T1, human 5T4-His protein. As to the kind of experiment: SPR Biacore, Protein A capture. The protocol:
The binding of the chimeric mAbs from these clones against recombinant 5T4 protein (human 5T4-his tag) was tested with Biacore using a capture method. The mAbs were captured using Protein A chip. A serial dilution of human 5T4-his tag protein was injected over captured antibody for 2-3 mins at a flow rate of 30 μl/min. The antigen was allowed to dissociate for 360-1000 s. All the experiments were carried out on a Biacore T200. Data analysis was carried out using Biacore T200 evaluation software.
In general terms: In SPR one partner is held on a chip, and binding of the other changes the refractive index at the surface.

For test [4], the target named is T1, human 5T4-His protein. As to the kind of experiment: SPR Biacore, Protein A capture. The procedure:
The binding of the 286B4 humanized antibodies to recombinant 5T4 protein (human 5T4-his tag) was tested with Biacore using a capture method. The mAbs were captured using Protein A chip. A serial dilution of human 5T4-his tag protein was injected over captured antibody for 3 mins at a flow rate of 30 μl/min. The antigen was allowed to dissociate for 280-800 s. All the experiments were carried out on a Biacore T200. Data analysis was carried out using the Biacore T200 evaluation software.
The source holds these as a separate data set.

The target of test [5] is T1, human 5T4-His protein. As to the kind of experiment: ELISA, coated 5T4-His. The protocol:
To evaluate the binding activity of clones, the 286B4 chimeric antibody along with 286B4 humanized mAbs were subjected to ELISA test.
Briefly, microtiter plates were coated with human 5T4-His protein at 1 μg/ml in PBS, 100 μl/well at 4° C. overnight, then blocked with 150 μl/well of 1% BSA. 4-fold dilutions of tested antibodies starting from 20 nM were added to each well and incubated for 1 hour at 37° C. The plates were washed with PBS/Tween and then incubated with Goat Anti-Human IgG-HRP for 30 mins at 37° C. After washing, the plates were developed with TMB substrate and analyzed by spectrophotometer at OD 450 nm. As shown in FIG. 16 and Table 15, most of the humanized clones bound to human 5T4 with high potency.

Where two headings read alike, the source gives them in different places.

For orientation: EC50 means the concentration giving half of the maximal effect. Low readings indicate greater potency, high ones weaker potency. As a reminder, the Kd is the equilibrium constant for the complex coming apart. As a reminder, the koff is the first-order rate constant of dissociation. Low values mean a long-lived complex, high ones a short-lived complex. What is called kon is the second-order rate constant of association. Low values mean slow association, high ones fast association.

B1: 449H9 chimeric antibody (antibody, V domains shown)
VH: QVQLQQSGAELVRPGSSVRISCKASGYAFSNYWMNWVKQRPGQGLEWIGQIYPGDGDTNYNGKFKNKATLTTDKSSSTAYMQLSSLTSEDSAVYFCARHYDYPYYYAMDYWGQGTSVTVSS
VL: DIQMTQSPSSLSASLGERVSLTCRASQDIGIALTWLQQEPDGTIKRLIYATSSLDSGVPKRFSGSRSGSDYTLTISSLESEDFVDYYCLQYIISPYTFGGGTKLEIK
notes: chimeric mAb
In test [1], B1 had an EC50 of 0.37 nM. This molecule also displayed an EC50 in test [2] of 0.1 nM. In test [3], this molecule registered a Kd of 0.381 nM, a koff of 0.000115 s⁻¹ and a kon of 301000 M⁻¹ s⁻¹.

B2: 425G1 chimeric antibody (antibody, V domains shown)
VH: EVQLQQSGAELVKPGASVKLSCTASGFNIKDTYMHWVKQRPEQGLEWIGRIDPANGHTIFASKFQGKATITADTSSNTAYMQLSSLTSGDTAVYYCGLFTMVVVPWYFDVWGTGTTVTVSS
VL: DIVMTQSHKFMSTSVGDRVSITCKASQDVSTAVAWYQQKPGQSPKLLIYWASTRHTGVPDRFTGSGSGTDYTLTISSVQAEDLALYYCQQHYSSPLTFGAGTKLELK
notes: chimeric mAb
In the case of B2, the response in test [1] was half-maximal at 0.29 nM (EC50). In test [2], the EC50 was determined as 0.23 nM. In addition, in test [3], the Kd is 1.64 nM, the koff turned out to be 0.000215 s⁻¹ and the kon turned out to be 131000 M⁻¹ s⁻¹.

B3: 493E10 chimeric antibody (antibody, V domains shown)
VH: DVQLVESGGGLVQPGGSRKLSCAASGFTFSSFGMHWVRQAPEKGLEWVAYISSGSSTIYYADTVKGRFTISRDNPKNTLFLQMTSLRSEDTAMYYCARNRAYHREAMDYWGQGTSVTVSS
VL: DIVLTQSPASLTVSLGQRATISCRASQSVSSSSYNYMHWYQQKPGQPPKLLIKSASNLESGVPARFSGSGSGTDFTLNIHPVEEEDTATYYCQHSWEIPYTFGGGTKLEIK
notes: chimeric mAb
For the molecule B3, the EC50 in test [1] worked out at 0.28 nM. This molecule also showed an EC50 in test [2] of 0.25 nM. In test [3], this molecule displayed a Kd of 0.626 nM, a koff of 0.000402 s⁻¹ and a kon of 642000 M⁻¹ s⁻¹.

B4: 109H7 chimeric antibody (antibody, V domains shown)
VH: QVQLQQSGAELMKPGASVKLSCKATGYTFTGYWIEWVKQRPGQGLEWIGETLPGRGSTNYNEKFKGKATFTADTSSNIVYMQLSSLTIEDSAIYYCARGRRDFDYWGQGTTLTVSS
VL: DIQMTQTTSSLSASLGDEVTISCSASQGINNYLNWYQQKPDGTVKLLIYYTSSLHSGVPSRFSGSGSGTDYSLTIINLEPEDIATYYCQQFSKLPFTFGSGTKLEIR
notes: chimeric mAb
On to B4, for which the EC50 in test [1] was 0.31 nM. In addition, the EC50 in test [2] stood at 0.19 nM. In test [3], this molecule displayed a Kd of 0.606 nM, a koff of 0.000391 s⁻¹ and a kon of 645000 M⁻¹ s⁻¹.

B5: 49C5 chimeric antibody (antibody, V domains shown)
VH: EVQLQQSGPELVKPGASVKISCKASGYTFTDYYMNWVKQSHGKSLEWIGDINPYSGGATNNQKFKGKATLTVDKSSSTAYIELRSLTSEDSAVYFCARGSIYYDSTANYFDYWGQGTTLTVSS
VL: DIQMTQSPASLSASVGETVTITCRASENIYSYLAWYQQKQGKSPQLLVYNAKSLTEGVPSRFSGSRSGTQFSLKINSLQPEDFGSYYCQHHYVTPWTFGGGTKLEIK
notes: chimeric mAb
In test [1], B5 displayed an EC50 of 0.6 nM. For the same molecule, in test [2], a half-maximal response (EC50) required 0.18 nM. Moreover, in test [3], the Kd was found to be 0.62 nM, the koff turned out to be 0.000337 s⁻¹ and the kon amounted to 544000 M⁻¹ s⁻¹.

B6: 119G5 chimeric antibody (antibody, V domains shown)
VH: QVQLQQSGPEVVKPGASVKISCKASGYTFTDYYMNWVKQSRGKSLEWIGDINPNNGGTNYNQKFKGKATLTVDKSSSTAYMELRSLTSEDSAVYYCAKEGPPGAMDYWGQGTSVTVSS
VL: NIVMTQTPKFLLVSAGDRVTITCKASQSVSNHVAWYQQKPGQSPKLLIYYVSNRSIGVPDRFTGSGYGTDFTFTISTVQAEDLAVYFCQQVYSSPFTFGGGTRLEMK
notes: chimeric mAb
For B6, in test [1], the half-maximal effective concentration (EC50) came to 0.32 nM. Also, the response in test [2] was half-maximal at 0.2 nM (EC50). In test [3], the Kd came out at 1.22 nM, the koff came out at 0.000159 s⁻¹ and the kon stood at 130000 M⁻¹ s⁻¹.

B7: 95F10 chimeric antibody (antibody, V domains shown)
VH: QVQLQQSGPEVVNPGASVKISCKASGYTFTDYYMNWVKQSRGKSLEWIGDINPNNGGTNYNQKFKDKATLTVDKSSNTAYMELRSLTSENSAVYYCAKEGPPGAMDYWGQGTSVTVSS
VL: NIVMTQTPKFLLVSAGDRVTITCKASQSVSNHVAWYQQKPGQSPKLLIYYVSNRYIGVPDRFTGSGYGTDFTFTISTVQAEDLAVYFCQQVYSSPFTFGGGTRLEMK
notes: chimeric mAb
As to B7, in test [1], the EC50 worked out at 0.24 nM. In addition, the EC50 in test [2] turned out to be 0.17 nM. In test [3], this molecule returned a Kd of 0.337 nM, a koff of 0.00012 s⁻¹ and a kon of 355000 M⁻¹ s⁻¹.

B8: Hu286B4-18 (antibody, V domains shown)
VH: EVQLQESGPGLVKPSDTLSLTCAVSGYSITNNYYWNWIRQPPGKGLEWMGYITYDGSNNYNPSLKNRITVSRDTSKNQFSLKLSSVTAVDTAVYYCTRGGGQLRFDYWGQGTTVTVSS
VL: DIQMTQSPSSLSASVGDRVTITCKASQSVSNEVTWYQQKPGKAPKMLIYYASNRYTGVPDRFSGSGYGTDFTFTISSLQPEDIATYYCQQDYSSPWTFGGGTKVEIK
notes: humanized
In test [4], B8 displayed a Kd of 1.18 nM, a koff of 0.000133 s⁻¹ and a kon of 113000 M⁻¹ s⁻¹. Further, the EC50 in test [5] came to 0.42 nM.

B9: 367B8 chimeric antibody (antibody, V domains shown)
VH: QVQLQQPGTELVKPGASVKLSCKASGYTFTSYWMHWVKQRPEQGLEWIGNINPSNGNTNYNENFKSQATLTVDKSSSTAYMQLSSLTSEDSAVYYCARGGWDFDYWGQGTTLTVSS
VL: QVVLTQSPAIMSASPGEKVTMTCSASSSVRYIHWYQQRSGTSPKRWIYDTSKLTSGVPVRFSGSGSGTSYSLTISSMEAEDAATYYCQQWTSKPPWTFGGGTKLEIR
notes: chimeric mAb
In turn, B9 had a concentration giving a half-maximal response (EC50) in test [1] of 0.86 nM. Besides, the EC50 in test [2] was 0.13 nM. In test [3], the Kd was found to be 0.285 nM, the koff is 0.000167 s⁻¹ and the kon stood at 588000 M⁻¹ s⁻¹.

B10: 353H11 chimeric antibody (antibody, V domains shown)
VH: QVQLQQPGTELVKPGASVKLSCKASDYTFTSYWMHWVKQRPEQGLEWIGNINPSNGNTNYNEKFKNKATLTVDKSSSTAYMQLSSLTFEDSAVYYCARGGWDFDYWGQGTTLTVSS
VL: QVVLTQSPAIMSASPGEKVTMTCSASSSVRYMHWYQQRSGTSPKRWIYDTSKLTSGVPARFSGSGSGTSYSLTISSMEAEDAATYYCQLWTSKPPWTFGGGTKLEIR
notes: chimeric mAb
As to B10, in test [1], the EC50 was determined as 0.73 nM. For the same molecule, the EC50 in test [2] came to 0.13 nM. In test [3], this molecule showed a Kd of 0.24 nM, a koff of 9.63e-05 s⁻¹ and a kon of 401000 M⁻¹ s⁻¹.

B11: 389G2 chimeric antibody (antibody, V domains shown)
VH: QVQLQQPGTELVKPGASVKLSCKASGYTFTSYWMHWVKQRPEQGLEWIGNINPSNGNTNYNERFKSKATLTVDKSSSTAYMQLSSLTSEDSTVYYCARGGWDFDYWGQGTTLTVSS
VL: QVVLTQSPAIMSASPGEKVTMTCSASSSVRYIHWYQQRSGTSPKRWIYDTSKLTSGVPVRFSGSGSGTSFSLTISSMEAEDAATYYCQQWTSKPPWTFGGGTKLEIK
notes: chimeric mAb
On to B11, for which, in test [1], the EC50 is 0.23 nM. In test [2], this molecule displayed an EC50 of 0.19 nM. In test [3], this molecule yielded a Kd of 0.49 nM, a koff of 0.000138 s⁻¹ and a kon of 282000 M⁻¹ s⁻¹.
